# Source: US9212226B2, “Amino acid sequences directed against CXCR4 and other GPCRs and compounds comprising the same” (Ablynx N.V., priority 2008, dated 2015)
# B1: 238D4: Nanobody (VHH) raised against human CXCR4, SEQ ID NO: 239 (protein)
# VHH: EVQLMESGGGLVQAGGSLRLSCAASGRTFNNYAMGWFRRAPGKEREFVAAITRSGVRSGVSAIYGDSVKDRFTISRDNAKNTLYLQMNSLKPEDTAVYTCAASAIGSGALRRFEYDYSGQGTQVTVSS
# modifications: Nanobody, Nanobody constructs or fragments thereof
# Molecular target: CXCR4 (Homo sapiens, UniProt P61073)
# Sequence (P61073 whole entry): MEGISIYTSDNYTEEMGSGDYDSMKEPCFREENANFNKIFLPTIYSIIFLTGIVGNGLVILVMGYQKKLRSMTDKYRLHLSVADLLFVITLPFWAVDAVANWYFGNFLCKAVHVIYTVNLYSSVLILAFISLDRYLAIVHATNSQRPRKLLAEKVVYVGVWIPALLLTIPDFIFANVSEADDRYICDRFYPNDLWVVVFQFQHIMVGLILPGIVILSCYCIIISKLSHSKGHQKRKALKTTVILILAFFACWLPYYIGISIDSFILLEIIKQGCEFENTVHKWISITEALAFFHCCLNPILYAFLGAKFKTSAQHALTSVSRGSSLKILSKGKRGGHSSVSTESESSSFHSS
# Test: [125I]-238D4 competition binding on membranes from HEK293T cells transiently expressing CXCR4
# Settings: membranes from HEK293T cells transiently expressing CXCR4; mean ± S.E.M.
# Experimental: HEK293T cells were maintained at 37° C. in a humidified 5% CO2, 95% air atmosphere in Dulbecco's modified Eagle's medium (DMEM) containing 2 mM L-glutamine, 50 IU/ml penicillin, 50 μg/ml streptomycin, and 10% (v/v) fetal calf serum. Jurkat cells were cultured in a humidified 5% CO2, 95% air atmosphere in a 1:1 mixture of Dulbecco's modified Eagle's medium (DMEM) and Ham's F12 medium containing 2 mM L-glutamine, 50 IU/ml penicillin, 50 μg/ml streptomycin, and 10% (v/v) fetal calf serum. […] [^125 I]-Labelling— Radiolabeling of Nanobodies with ^125I was performed using the Iodo-gen method (Pierce, Rockford, Ill.) according to the manufacturer's protocol. ^125I-labeled Nanobodies was separated from free iodine (>99%) using a Sephadex G-25 gel filtration column (Amersham Biosciences, Piscataway, N.J.). […] Competition Binding Assays— Membranes from HEK293T cells transiently expressing CXCR3 or CXCR4 were prepared 48 h after transfection as follows. Cells were washed and scraped from the cell culture dishes with ice-cold PBS containing 1 mm EDTA. The scraped cells were pelleted at 1500×g for 10 min at 4° C. The pellet was washed and then resuspended in ice-cold membrane buffer (15 mM Tris, pH 7.5, 1 mM EGTA, 0.3 mM EDTA, and 2 mM MgCl2). The cell suspension was homogenized by 10 strokes at 1200 rpm using a Teflon-glass homogenizer and rotor and further subjected to three freeze-thaw cycles using liquid nitrogen. Membranes were separated by centrifugation at 40,000 g for 25 min at 4° C. The membrane pellet was washed and resuspended in ice-cold Tris-sucrose buffer (20 mM Tris, pH 7.4, and 250 mM sucrose) and frozen in liquid nitrogen. The total protein was determined using a Bradford assay (Bio-Rad). […] Membranes were then harvested over polyethylenimine (0.5%)-treated Whatman GF/C filter plates and washed three times with ice cold binding buffer containing 500 mM NaCl. Plates were counted by liquid scintillation. Inositol Phosphate Accumulation Assay— 24 hours post transfection with pcDNA3.1-CXCR4 and pcDNA1-HA-mG {alpha} qi5 (see Verzijl et al, 2008 supra), 250.000 cells were seeded into 24-wells plates and labelled overnight using inositol-free minimal essential medium supplemented with 1 μCi myo-[2-^3H]-inositol. The next day, the cells were washed once to remove not incorporated myo-[2-^3H]-inositol. […] In agonist experiments, the cells were directly stimulated with test compounds and LiCl (10 mM) in assay buffer for 2 h at 37° C. The stimulation was stopped by aspirating the stimulation medium and adding ice-cold 10 mM formic acid. The accumulated inositol phosphates were isolated by anion exchange chromatography and counted by liquid scintillation. CRE Reporter Gene Assay— HEK239T cells were transfected with pCRE/β-galactosidase (Chen W, Shields T S, Stork P J S, Cone R D (1995) Anal Biochem 226:349-354) and plasmids (pcDEF3 or pcDNA3.1) encoding the indicated receptors. 40,000 transfected cells per well were seeded into 96 well plates and grown in DMEM supplemented with 10% fetal calf serum. The medium was replaced 32 h after transfection by serum-free DMEM supplemented with 0.5% bovine serum albumin and ligands as indicated. […] The β-galactosidase activity was determined by the measurement of absorption at 420 nm with a PowerwaveX340 plate reader (Bio-Tek Instruments Inc., Winooski, Vt.) after incubation with the assay buffer when the OD420 value for forskolin (3 μM) controls reached 0.4-0.6. Chemotaxis Assay— The chemotactic responsiveness of Jurkat 3D cells was assessed using ChemoTx™ plates (Receptor Technologies Ltd., Oxon, UK) in which a upper cell-containing compartment is separated from a lower chemoattractant-containing compartment by a polyvinylpyrollidone-free polycarbonate filter with 5-μm pores. Cells were harvested, washed and resuspended in RPMI containing 0.5% bovine serum albumin and then loaded to 150,000 cells per well in a volume of 25 μl into the upper compartment of the chemotaxis chamber.
molecule,measurement,value
B1,Displacem. (%) of [125I]-238D4 (maximal displacement),103 ± 1%
